From US20050221288A1

Columns and labels:
[1] = biological target: endogenous P-TEFb complex (positive transcription elongation factor b) (UniProt P50750); test: cell-based or functional assay
[2] = biological target: endogenous P-TEFb complex (positive transcription elongation factor b) (UniProt P50750); test: GST pull-down of endogenous P-TEFb from cell extract, read out by the Tat-associated kinase assay

Sequence of UniProt P50750 (P50750 whole entry, chain 1 of 2): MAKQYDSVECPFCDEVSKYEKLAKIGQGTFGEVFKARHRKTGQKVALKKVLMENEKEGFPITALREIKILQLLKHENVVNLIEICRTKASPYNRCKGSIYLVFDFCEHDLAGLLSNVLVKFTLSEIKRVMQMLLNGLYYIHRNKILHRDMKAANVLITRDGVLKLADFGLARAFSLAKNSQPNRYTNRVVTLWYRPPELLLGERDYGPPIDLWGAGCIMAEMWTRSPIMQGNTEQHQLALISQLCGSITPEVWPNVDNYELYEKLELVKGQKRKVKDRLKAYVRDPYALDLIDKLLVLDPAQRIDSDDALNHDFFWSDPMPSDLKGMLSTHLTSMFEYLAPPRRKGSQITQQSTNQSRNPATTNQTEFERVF
Sequence of UniProt P50750 (O60563 whole entry, chain 2 of 2, further chain): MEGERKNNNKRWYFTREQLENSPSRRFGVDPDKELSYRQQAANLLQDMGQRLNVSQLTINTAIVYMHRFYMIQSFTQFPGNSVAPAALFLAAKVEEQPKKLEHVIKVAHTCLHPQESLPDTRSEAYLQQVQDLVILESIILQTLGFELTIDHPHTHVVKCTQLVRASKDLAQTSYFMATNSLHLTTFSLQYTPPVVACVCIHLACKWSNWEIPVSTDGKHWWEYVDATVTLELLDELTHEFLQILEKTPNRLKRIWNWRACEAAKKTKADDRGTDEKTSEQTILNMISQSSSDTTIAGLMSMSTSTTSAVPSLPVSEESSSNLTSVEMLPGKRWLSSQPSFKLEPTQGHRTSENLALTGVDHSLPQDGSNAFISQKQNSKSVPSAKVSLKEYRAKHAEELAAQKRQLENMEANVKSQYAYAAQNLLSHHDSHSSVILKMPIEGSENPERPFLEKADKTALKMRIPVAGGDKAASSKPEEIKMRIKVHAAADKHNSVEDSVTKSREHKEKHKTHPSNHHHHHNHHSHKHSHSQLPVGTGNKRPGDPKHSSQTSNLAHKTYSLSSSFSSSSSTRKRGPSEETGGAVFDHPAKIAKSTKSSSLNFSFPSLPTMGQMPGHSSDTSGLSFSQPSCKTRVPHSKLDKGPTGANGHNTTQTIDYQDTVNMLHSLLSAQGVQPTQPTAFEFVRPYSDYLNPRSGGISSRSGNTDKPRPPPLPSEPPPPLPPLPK

GST-Tat T23N (1-72) (from UniProt P04608 1-72)
extent of CTD phosphorylation (Tat-associated kinase assay after GST pull-down; U937 or 293 cell extract) (fold over wild-type Tat) [1]: 3.5 | fold stronger binding than wild-type Tat [2]: 3.5 fold
